Source: article PMC10805794

How the values were obtained:
[1] = molecular target: ancestral spike antigen (Sanofi SARS-CoV-2 recombinant prefusion spike trimer, Wuhan Hu-1) (SARS-CoV-2 (Wuhan Hu-1) | bacteriophage T4) (UniProt P0DTC2); assay: SEC; Superose-6 column, analytical HPLC; antigens at 3 mg/mL stored at 4 °C for several weeks (cold stored) and an aliquot incubated at 37 °C for one day
[2] = molecular target: Beta spike antigen (Sanofi SARS-CoV-2 recombinant prefusion spike trimer, B.1.351 variant) (SARS-CoV-2 (B.1.351, Beta) | bacteriophage T4) (UniProt P0DTC2); assay: as above

“ancestral spike antigen (Sanofi SARS-CoV-2 recombinant prefusion spike trimer, Wuhan Hu-1) (from UniProt P0DTC2 14-1213) (complex)” showed a stoichiometry N [1] of 3.

Work on “Beta spike antigen (Sanofi SARS-CoV-2 recombinant prefusion spike trimer, B.1.351 variant) (from UniProt P0DTC2 14-1213) (complex)” yielded a stoichiometry N [2] of 3.
